{
  "source": "patent US20260132217A1",
  "about": "(UNIVERSITE D AIX MARSEILLE, published 2026)",
  "binders": {"B1": {"name": "EPCAM on cells (U87, U373) (other, human, UniProt P16422 24-314, looked up)", "chain": "QEECVCENYKLAVNCFVNNNRQCQCTSVGAQNTVICSKLAAKCLVMKAEMNGSKLGRRAKPEGALQNNDGLYDPDCDESGLFKAKQCNGTSMCWCVNTAGVRRTDKDTEITCSERVRTYWIIIELKHKAREKPYDSKSLRTALQKEITTRYQLDPKFITSILYENNVITIDLVQNSSQKTQNDVDIADVAYYFEKDVKGESLFHSKKMDLTVNGEQLDLDPGQTLIYYVDEKAPEFSMQGLKAGVIAVIVVVVIAVVAGIVVLVISRKKRMAKYEKAEIKEMGEMHRELNA", "notes": "whole, on cells"}},
  "target": "T1, membrane CD146 on cells (U87, U373, HUVEC) (human, UniProt P43121 24-646)",
  "T1 construct": "whole, on cells; also called MCAM; membranous CD146",
  "T1 sequence (looked up)": "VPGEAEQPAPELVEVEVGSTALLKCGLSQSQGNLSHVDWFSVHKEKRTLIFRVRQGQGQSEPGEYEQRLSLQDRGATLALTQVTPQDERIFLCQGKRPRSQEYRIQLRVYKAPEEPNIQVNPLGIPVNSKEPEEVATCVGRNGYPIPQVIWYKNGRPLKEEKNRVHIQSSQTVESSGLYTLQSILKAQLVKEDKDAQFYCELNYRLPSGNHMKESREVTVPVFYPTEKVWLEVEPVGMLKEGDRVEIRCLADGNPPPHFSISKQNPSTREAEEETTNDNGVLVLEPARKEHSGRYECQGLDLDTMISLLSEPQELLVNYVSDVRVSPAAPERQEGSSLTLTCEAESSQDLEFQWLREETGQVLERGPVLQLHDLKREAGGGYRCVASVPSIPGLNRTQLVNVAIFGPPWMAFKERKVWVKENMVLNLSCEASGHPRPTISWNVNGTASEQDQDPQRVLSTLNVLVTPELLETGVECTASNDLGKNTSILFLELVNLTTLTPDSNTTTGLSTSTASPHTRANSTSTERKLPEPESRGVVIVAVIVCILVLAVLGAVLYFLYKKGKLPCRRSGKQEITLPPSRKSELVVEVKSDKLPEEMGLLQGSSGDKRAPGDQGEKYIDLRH",
  "experiment": "co-immunoprecipitation with anti-CD146 antibody S-Endo1 from U87 cells (reproduced in U373), western blot",
  "description": "Non-confluent U373 cells were used for immunoprecipitation with IgG or anti-CD146 antibody. Western-blotting was then carried out using antibodies directed against VEGFR2, CD146 and integrin subunits αv and β3. Membrane receptor EPcam was used as a negative control (A). U373 cells transfected or not with siRNA targeting β3 integrin were stimulated for 25 min with sCD146 or VEGF, and CD146 was immunoprecipitated before western blotting was done using antibody directed against total phospho-tyrosine (B). Control, CD146-KO, VEGFR2-KO or β3-KO U87 cells were stimulated for 25 min with either sCD146 or VEGF. Lysates were then subjected to western-blotting and membranes were probed with either anti-phospho β3 Y759 (C) or anti-phospho VEGFR2 Y1054 (D). Average of 3 experiments is shown; *P<0.05, **P<0.01, ***p<0.001, experimental vs control.\nBriefly, cells were grown on plates and treated as a function of the experiment, then washed in PBS, scraped off the plates and extracted with 300 μl of ice-cold RIPA buffer (150 mM NaCl, 50 mM Tris HCl, pH 7.4, 2.4 mM EDTA, 1% Nonidet P40, 0.5 mM phenylmethylsulfonyl fluoride, supplemented with protease and phosphatase inhibitor (A32959)) for 30 min at 4° C. After centrifugation (12,000 g, 10 min, 4° C.) to eliminate cell debris and nuclei, the Pierce™ BCA protein assay kit was used to quantify protein concentration. […]",
  "data": [
    {"binder": "B1", "values": [
      {"measurement": "binding result", "value": "no binding"}
    ]}
  ]
}
